In PMC4889933 (Nucleic Acids Research, 2016):

Legend:
cross-linking = molecular target: the molecule itself; assay: cross-linking
[1] = molecular target: T1, LigD protein of B. subtilis (LigD_(Bsub)), C-terminal His6 (B. subtilis, UniProt O34398 1-611); assay: SPR
T1 sequence (looked up): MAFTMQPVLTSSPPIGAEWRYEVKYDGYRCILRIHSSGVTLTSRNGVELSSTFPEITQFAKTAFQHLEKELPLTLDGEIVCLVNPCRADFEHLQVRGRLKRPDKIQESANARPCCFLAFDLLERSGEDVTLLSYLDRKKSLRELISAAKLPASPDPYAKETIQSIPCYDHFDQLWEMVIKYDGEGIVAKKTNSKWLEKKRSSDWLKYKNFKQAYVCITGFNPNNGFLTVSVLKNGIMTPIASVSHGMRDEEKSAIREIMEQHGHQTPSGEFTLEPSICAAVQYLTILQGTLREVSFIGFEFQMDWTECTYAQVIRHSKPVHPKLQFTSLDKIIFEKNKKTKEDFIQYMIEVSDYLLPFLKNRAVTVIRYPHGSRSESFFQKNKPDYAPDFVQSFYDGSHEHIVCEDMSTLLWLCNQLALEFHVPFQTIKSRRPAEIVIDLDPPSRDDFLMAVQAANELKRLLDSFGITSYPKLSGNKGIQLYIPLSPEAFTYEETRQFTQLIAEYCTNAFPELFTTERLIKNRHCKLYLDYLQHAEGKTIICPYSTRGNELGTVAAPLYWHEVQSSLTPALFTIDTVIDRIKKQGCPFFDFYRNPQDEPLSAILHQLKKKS

| Binder | stoichiometry N (cross-linking) | Kd [1] [µM] |
| --- | --- | --- |
| Ku core, Ku_(Bsub) truncated of the entire C-terminal domain (M18 to P256 of NP_389224.1), N-terminal His6 (domain or fragment, B. subtilis 168, UniProt O34859 18-256, looked up) MHTMWKGSISFGLVNIPIKLYAATEDKDIKLRSLHKEDHAPIKYEKVCTNCEKTLSPDEIVKGYEYVKGKYVVLTDEDLKSLKQEHEEKAVEIVDFVQLQEIDPIYFNRSYFVGPGDNGTKAYTLLREALRSTGKIGIANMTIRSKQQLAILRVYENCIVMESIHYPDEVRSAAQVPGVPDQSNVNDKELQTAITLIDELTAKFEPEKYEDTYRQALLQRVNDKLENKETAVTPDKAPP | 2 |  |
| KuΔexCter, Ku_(Bsub) truncated of the extended Cter (M18 to P277 of NP_389224.1), N-terminal His6 (domain or fragment, B. subtilis 168, UniProt O34859 18-277, looked up) MHTMWKGSISFGLVNIPIKLYAATEDKDIKLRSLHKEDHAPIKYEKVCTNCEKTLSPDEIVKGYEYVKGKYVVLTDEDLKSLKQEHEEKAVEIVDFVQLQEIDPIYFNRSYFVGPGDNGTKAYTLLREALRSTGKIGIANMTIRSKQQLAILRVYENCIVMESIHYPDEVRSAAQVPGVPDQSNVNDKELQTAITLIDELTAKFEPEKYEDTYRQALLQRVNDKLENKETAVTPDKAPPREDVIDLVSALQASIDRTRRP | 2 | 11 |
